{"source": "patent US10920265B2", "about": "“Compounds and methods for detection of enzymes that remove methyl succinyl groups from epsilon-amino lysine moieties” (Enzo Life Sciences, Inc., priority 2011, dated 2021)", "origin": "cited, not measured here", "conditions_in_all_cases": "varied NAD^+, Du et al., 2009; cited from earlier work", "key": {"[1]": {"molecular_target": "T1, SIRT2 (Homo sapiens, UniProt Q8IXJ6)", "T1 sequence (Q8IXJ6 1-389)": "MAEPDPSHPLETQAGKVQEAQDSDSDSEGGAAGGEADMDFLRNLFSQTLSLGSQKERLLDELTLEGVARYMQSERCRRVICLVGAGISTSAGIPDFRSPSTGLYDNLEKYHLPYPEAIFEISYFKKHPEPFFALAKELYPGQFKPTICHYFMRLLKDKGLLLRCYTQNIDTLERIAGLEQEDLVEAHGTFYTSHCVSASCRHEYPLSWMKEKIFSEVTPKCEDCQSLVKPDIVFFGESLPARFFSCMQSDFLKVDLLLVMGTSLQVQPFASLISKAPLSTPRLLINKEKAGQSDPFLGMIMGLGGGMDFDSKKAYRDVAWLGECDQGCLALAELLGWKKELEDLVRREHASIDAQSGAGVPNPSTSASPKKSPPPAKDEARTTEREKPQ"}, "[2]": {"molecular_target": "T2, SIRT1 (Homo sapiens, UniProt Q96EB6)", "T2 construct": "purchased ENZO Life Sciences BML-SE239", "T2 sequence (Q96EB6 1-747)": "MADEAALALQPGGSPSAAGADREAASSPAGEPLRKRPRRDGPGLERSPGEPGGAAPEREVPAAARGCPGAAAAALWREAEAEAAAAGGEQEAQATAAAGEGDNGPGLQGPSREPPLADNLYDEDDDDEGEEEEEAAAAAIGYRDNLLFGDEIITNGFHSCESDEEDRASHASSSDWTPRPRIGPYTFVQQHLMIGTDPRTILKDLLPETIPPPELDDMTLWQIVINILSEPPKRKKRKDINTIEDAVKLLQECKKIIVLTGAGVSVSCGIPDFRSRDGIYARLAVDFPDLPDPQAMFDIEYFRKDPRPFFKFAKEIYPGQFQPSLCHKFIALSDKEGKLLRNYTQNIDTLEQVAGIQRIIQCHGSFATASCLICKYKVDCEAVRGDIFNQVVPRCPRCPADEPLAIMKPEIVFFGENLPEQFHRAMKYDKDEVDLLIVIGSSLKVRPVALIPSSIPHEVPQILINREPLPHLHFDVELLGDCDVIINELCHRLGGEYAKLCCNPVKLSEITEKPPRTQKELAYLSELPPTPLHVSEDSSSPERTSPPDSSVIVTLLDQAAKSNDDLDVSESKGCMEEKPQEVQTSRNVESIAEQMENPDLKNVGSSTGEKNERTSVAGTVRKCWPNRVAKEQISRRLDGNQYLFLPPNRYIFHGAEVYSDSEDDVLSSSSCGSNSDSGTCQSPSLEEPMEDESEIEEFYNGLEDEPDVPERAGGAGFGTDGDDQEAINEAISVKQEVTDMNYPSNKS"}, "[3]": {"molecular_target": "T3, SIRT5 (Homo sapiens, UniProt Q9NXA8)", "T3 sequence (Q9NXA8 37-310)": "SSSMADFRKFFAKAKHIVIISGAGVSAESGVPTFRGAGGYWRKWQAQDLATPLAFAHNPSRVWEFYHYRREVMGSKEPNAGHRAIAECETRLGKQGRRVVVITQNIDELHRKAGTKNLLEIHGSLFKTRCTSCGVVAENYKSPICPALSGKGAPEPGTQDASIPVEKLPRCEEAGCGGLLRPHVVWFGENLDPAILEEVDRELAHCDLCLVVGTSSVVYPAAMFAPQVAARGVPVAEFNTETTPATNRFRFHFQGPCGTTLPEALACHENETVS", "design": "purchased Enzo Life Sciences BML-SE555"}, "[4]": {"molecular_target": "T4, SIRT3 (Homo sapiens, UniProt Q9NTG7)", "T4 construct": "purchased ENZO Life Sciences BML-SE270", "T4 sequence (Q9NTG7 1-399)": "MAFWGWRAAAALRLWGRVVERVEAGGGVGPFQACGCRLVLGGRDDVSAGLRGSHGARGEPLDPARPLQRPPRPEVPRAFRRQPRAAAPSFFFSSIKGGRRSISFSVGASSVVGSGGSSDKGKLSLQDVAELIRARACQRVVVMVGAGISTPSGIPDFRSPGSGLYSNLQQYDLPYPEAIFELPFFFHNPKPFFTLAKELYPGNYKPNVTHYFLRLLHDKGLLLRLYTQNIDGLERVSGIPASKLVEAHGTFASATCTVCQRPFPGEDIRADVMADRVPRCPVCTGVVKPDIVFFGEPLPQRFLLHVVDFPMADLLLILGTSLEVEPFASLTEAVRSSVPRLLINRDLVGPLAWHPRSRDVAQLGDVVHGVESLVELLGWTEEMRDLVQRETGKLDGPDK"}}, "note": "No end group written: not given here."}
{"substance": "Hist. H3 4-15, K9Ac: unlabeled peptide, histone H3 residues 4-15 acetylated on lysine-9 (KQTARK(Ac)STGGKA; UniProt P68431 5-16, looked up, fragment)", "values": [{"measurement": "kcat", "setting": "[1]", "result": 0.021, "unit": "s⁻¹"}, {"measurement": "kcat", "setting": "[2]", "result": 0.079, "unit": "s⁻¹"}, {"measurement": "kcat", "setting": "[3]", "result": 0.003, "unit": "s⁻¹"}, {"measurement": "kcat", "setting": "[4]", "result": 0.009, "unit": "s⁻¹"}]}
